Reference: patent US20240043489A1, “Cytokine Prodrugs Comprising a Cleavable Linker” (Trutino Biosciences Inc., priority 2020, published 2024)
Entries after “also recorded” stand apart in the source; their conditions may differ. Where no end group is shown, it is not given here. The star is where a group is joined. EDANS = O=S(=O)(O)c1cccc2c(NCCN*)cccc12

Experiments:
collagen IV = experiment: Retention linker peptide binding to collagen IV-coated beads; settings: peptides 20 uM, 2 hours
Procedure: (§1) A series of peptides comprising an MMP cleavable site with or without the addition of a tumor retention sequence were synthesized and conjugated to the fluorophore EDANS (5-((2-Aminoethyl)amino)naphthalene-1-sulfonic acid) (custom synthesis, ThermoFisher). […] These peptides were then tested for their ability to bind ECM proteins such as heparin, fibronectin and collagen which are found in abundance in the tumor stroma.
(§2) For fibronectin and collagen binding assays, streptavidin coupled magnetic beads (Mag Sepharose, Cytiva and Dynabeads, ThermoFisher, respectively) were first incubated with biotin-labelled fibronectin (Cytoskeleton) or biotin-labelled collagen IV (Prospec) for 1 Hr with gentle shaking. Following multiple washes, the ECM-coated beads were then incubated with Edans Peptides (20 uM) for 2 hours at room temperature with shaking in neutral or acidic binding buffer. Beads were then washed and resuspended in 100 uL of binding buffer in a black 96-well plate. Peptide binding was quantified by measuring the fluorescence of samples using excitation/emission spectra of EDANS (Ex 340/Em 490).

fibronectin = experiment: Retention linker peptide binding to fibronectin-coated beads; settings: peptides 20 uM
Procedure: as §1, §2

[1] = system: Heparan sulfate proteoglycans; settings: DTx protein derived; Note 1; cited from earlier work
MMP9 = target: T1, MMP9 (Mus musculus, UniProt P41245); experiment: Cleavage of fusion protein by MMP9 protease (SDS-PAGE / Western blot); format: biochemical
T1 construct: purchased R&D Systems
Procedure: (§3) Recombinant MMP9 and/or MMP2 (R&D Systems) was first activated with p-aminophenylmercuric acetate and this activated protease or equivalent amount of activating solution without the protease was used to digest or mock digest the fusion protein for 1 hr, 2 hr, 4 hr and overnight (18-22 hr) at 37 C. Cleavage assays are set up in TCNB buffer: 50 mM Tris, 10 mM CaCl2), 150 mM NaCl, 0.05% Brij-35 (w/v), pH 7.5. Digested protein was aliquoted and stored at −80° C. prior to testing. Aliquots of digests were subsequently analyzed by SDS-PAGE followed by Western blotting to evaluate the extent of cleavage. Digests were also assessed in functional assays such as CTLL-2 proliferation and HEK-Blue Interleukin reporter assays. As shown in FIGS. 2A-E, essentially complete cleavage by MMP9 protease of the fusion proteins with functional site is seen after overnight incubation. In contrast, proteins containing a scrambled MMP cleavage site are not cut (FIG. 2E).
Untreated and digested fusion proteins were evaluated for cleavage products by Western blot. The following monoclonal antibodies were used: rat anti-mouse IL-2 antibody (JES6-1A12; ThermoFisher), goat anti-mouse IL-2 polyclonal antibody (AF-402-NA; R&D systems), mouse anti-6xHis monoclonal antibody (MA1-21315, ThermoFisher), Anti-mIgG Fc HRP conjugated (ThermoFisher cat #A16084), and Anti-human IL2 antibody (Invitrogen, cat #MA5-17097, mouse IgG1). Detection was performed using either a goat anti-rat HRP-conjugated antibody, Donkey Anti-goat HRP-conjugated antibody or Goat Anti-mouse HIRP conjugated (Jackson Immuno Research, West Grove, PA) and developed using the SuperSignal West Femto Maximum sensitivity detection reagent (ThermoFisher) following the manufacturer's recommendations.

CTLL-2 cells = experiment: CTLL-2 proliferation assay (MTT); format: cell-based
Procedure: as §3
IL-2 activity was measured using either CTLL-2 cells (ATCC) or the reporter cell line HEK Blue IL2 (Invivogen, San Diego). In brief, for the CTLL-2 assay a titration of untreated and digested samples is added to 40 000 CTLL-2 cells per well in 100 ul medium in a 96-well plate and incubated at 37C in 5% CO2 for 18-22 hr. At the end of this period, 50ug/well Thiazolyl Blue Tetrazolium Bromide (MTT) (Sigma-Aldrich) was added and the plate was incubated for 5 hr at 37C in 5% CO2. Cells were lysed with 100 µl/well 10% SDS (Sigma) acidified with HCl, incubated at 37C for 4 hr, and absorbance was read at 570 nm. Recombinant human or mouse IL-2 (Peprotech and R&D systems respectively) was used as a positive control. FIGS. 3A-B, 3K-L and 3N-P show examples of untreated and digested fusion proteins evaluated in CTLL-2 proliferation assay.

MC38 tumor = experiment: Intra-tumoral injection in syngeneic MC38 colorectal cancer model; format: in vivo, mice
Procedure: Tumors and body weights were measured twice a week for the duration of the study. Tumor volumes were calculated using the following equation: (longest diameter*shortest diameter^2)/2.

EMT6 tumor = settings: mouse, in vivo, iv, 8 mg/kg
Description: We assessed the levels of IL-2 fusion proteins present in tumors in vivo by utilizing fluorescently labelled proteins and real-time whole-body imaging. Non-cleavable Construct GGG and Construct DD were conjugated to Dylight 650 probe according to the manufacturer's protocol (Dylight 650 Antibody labeling kit, ThermoFisher). […] BALB/c mice were subcutaneously inoculated with EMT6 breast cancer syngeneic model and when the average tumor volume reached 240 mm^3, animals were randomized into 3 groups based on tumor volumes (n=2 mice per treatment group).
Following a single dose of the labeled IL-2 fusion proteins to tumor-bearing mice, fluorescent images (excitation 640/emission 680 consistent with Dylight 650 probe ex/em spectra) were captured over 96 hrs on an IVIS system (PerkinElmer, IVIS Lumina Series III) and are shown in FIG. 15A. The fluorescence intensity in tumor area was quantified across the groups, average background tumor fluorescence (group 1) was subtracted from group 2 and 3 values at each time-point, and data was normalized to the initial fluorescence intensity of same amount of each labeled protein.

T1 sequence (P41245 108-730): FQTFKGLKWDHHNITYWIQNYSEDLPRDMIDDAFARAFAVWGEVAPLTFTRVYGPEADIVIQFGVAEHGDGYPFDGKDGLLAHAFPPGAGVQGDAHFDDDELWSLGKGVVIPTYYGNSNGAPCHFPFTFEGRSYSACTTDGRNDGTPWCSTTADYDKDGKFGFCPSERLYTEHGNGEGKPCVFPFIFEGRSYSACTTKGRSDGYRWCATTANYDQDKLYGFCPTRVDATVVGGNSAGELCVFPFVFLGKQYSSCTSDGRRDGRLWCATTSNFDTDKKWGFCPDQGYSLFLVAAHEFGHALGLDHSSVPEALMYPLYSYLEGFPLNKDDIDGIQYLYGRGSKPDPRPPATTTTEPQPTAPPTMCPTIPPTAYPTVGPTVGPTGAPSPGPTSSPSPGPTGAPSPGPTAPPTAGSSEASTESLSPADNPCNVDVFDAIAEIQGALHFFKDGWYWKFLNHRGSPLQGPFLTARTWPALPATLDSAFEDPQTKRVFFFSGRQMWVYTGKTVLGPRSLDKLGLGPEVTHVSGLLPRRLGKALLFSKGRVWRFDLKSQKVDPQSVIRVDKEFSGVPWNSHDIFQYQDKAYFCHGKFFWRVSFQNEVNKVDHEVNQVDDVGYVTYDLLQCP

peptide 15: EDANS-conjugated MMP linker peptide GGGSG...; retention motif target Collagen I (GGGSGLHERHLNNN-{EDANS}; also: EDANS fluorophore conjugated at 3' end)
binding to collagen IV (collagen IV): binds to a lesser extent

peptide 13: EDANS-conjugated MMP linker peptide with GPLGVRG site; retention motif target pH dependent fibronectin (GGGWSHWGPLGVRG-{EDANS}; also: EDANS fluorophore conjugated at 3' end)
binding to fibronectin at pH6 vs pH 7.5 (fibronectin): enhanced binding at pH6 | binding to fibronectin (fibronectin; 2 hours): able to bind fibronectin

640 (DVIRDKTKTKIESLK) [Construct 640]
binds to HSGP, affinity [1]: binds to HSGP with low affinity (DTx protein)

639 (NGRKIRMRCRAIDGD) [Construct 639]
binds to HSGP, affinity [1]: binds to HSGP with high affinity (DTx protein)

peptide 14: EDANS-conjugated MMP linker peptide with GPLGVRG site; retention motif target Collagen IV (KLWVLPKGPLGVRG-{EDANS}; also: EDANS fluorophore conjugated at 3' end)
binding to collagen IV (collagen IV): strongly binds collagen IV

B1: Construct A: SEQ ID NO 100: mIL2-2x(SG4)-MMPcs1-2x(G4S)-IL2Ralpha-6His (protein)
chain: APTSSSTSSSTAEAQQQQQQQQQQQQHLEQLLMDLQELLSRMENYRNLKLPRMLTFKFYLPKQATELKDLQCLEDELGPLRHVLDLTQSKSFQLEDAENFISNIRVTVVKLKGSDNTFECQFDDESATVVDFLRRWIAFCQSIISTSPQSGGGGSGGGGGPLGVRGGGGGSGGGGSELCLYDPPEVPNATFKALSYKNGTILNCECKRGFRRLKELVYMRCLGNSWSSNCQCTSNSHDKSRKQVTAQLEHQKEQQTTTDMQKPTQSMHQENLTGHCREPPPWKHEDSKRIYHFVEGQSVHYECIPGYKALQRGPAISICKMKCGKTGWTQPQLTCVDEREHHRFLASEESQGSRNSSPESETSCPITTTDFPQPTETTAMTETFVLTMEYKHHHHHH
time at which cleavage product was detectable (MMP9; +MMP-9 digestion, Western blot): 1 h | full-length cytokine prodrug remaining (MMP9; overnight +MMP time point): substantially undetectable | greater activity of MMP-9 treated than untreated construct (EC50 comparison) (CTLL-2 cells; CTLL-2 proliferation): 10 fold | CTLL-2 cell proliferation, MMP-9 treated construct (CTLL-2 cells; cleaved by MMP-9): stimulates CTLL-2 cell proliferation in a dose dependent manner | anti-tumor activity (MC38 tumor; daily intra-tumoral injection, 10 injections, Construct A 70ug/day, r hIL2 5 ug/day): substantially inhibited tumor growth; also recorded: complete elimination of tumor | tumor establishment after re-challenge with MC38 cells (MC38 tumor; re-inoculated on Day 40, a month after re-challenge): Tumor growth was rejected; also recorded: no tumor mass was established

B2: Construct DD: SEQ ID NO 814: m IL2-2x(GHHPH)-MMPscr-2x(G4S)-mIL2Ra(1-215)-mu IgG1 Fc (protein)
chain: APTSSSTSSSTAEAQQQQQQQQQQQQHLEQLLMDLQELLSRMENYRNLKLPRMLTFKFYLPKQATELKDLQCLEDELGPLRHVLDLTQSKSFQLEDAENFISNIRVTVVKLKGSDNTFECQFDDESATVVDFLRRWIAFCQSIISTSPQGHHPHGHHPHGVRLGPGGGGGSGGGGSELCLYDPPEVPNATFKALSYKNGTILNCECKRGFRRLKELVYMRCLGNSWSSNCQCTSNSHDKSRKQVTAQLEHQKEQQTTTDMQKPTQSMHQENLTGHCREPPPWKHEDSKRIYHFVEGQSVHYECIPGYKALQRGPAISICKMKCGKTGWTQPQLTCVDEREHHRFLASEESQGSRNSSPESETSCPITTTDFPQPTETTAMTETFVLTMEYKGCKPCICTVPEVSSVFIFPPKPKDVLTITLTPKVTCVVVDISKDDPEVQFSWFVDDVEVHTAQTQPREEQFNSTFRSVSELPIMHQDWLNGKEFKCRVNSAAFPAPIEKTISKTKGRPKAPQVYTIPPPKEQMAKDKVSLTCMITDFFPEDITVEWQWNGQPAENYKNTQPIMDTDGSYFVYSKLNVQKSNWEAGNTFTCSVLHEGLHNHHTEKSLSHSPGK
tumor-associated fluorescence relative to Construct GGG (EMT6 tumor): roughly 2 fold
